1 molecule from PMC3712923, “Structure-Guided Design of an Engineered Streptavidin with Reusability to Purify Streptavidin-Binding Peptide Tagged Proteins or Biotinylated Proteins” (PLoS ONE, 2013) can be followed below.

The term Kd denotes the constant that tells how readily two partners part at equilibrium. Read a low Kd as higher affinity. Usually koff stands for the first-order rate constant of dissociation. Higher therefore signals a short-lived complex. As usually defined, the kon is the rate constant with which the complex forms. Higher therefore signals faster complex formation.

Common to all, as to assay: SPR; BIAcoreX; synthetic SBP peptide thiol-coupled by its N-terminal cysteine to a CM5 chip, streptavidin variant as analyte; blank flow cell as reference
Details in all cases: both partners purified
(In SPR one partner is held on a chip, and binding of the other changes the refractive index at the surface.)

Assay [1] deals with T1, SAVSBPM12 streptavidin mutein (G48T) (UniProt P22629 25-183, G48T).
T1 construct: streptavidin with the mutation G48T; Secreted by means of the SacB signal peptide; Its oligomeric state was not measured; also called G48T streptavidin mutein; source: B. subtilis WB800[pSAVSBPM12], secreted, purified (biotin-agarose), denatured and renatured, then iminobiotin-agarose
T1 sequence (P22629 25-183 G72T): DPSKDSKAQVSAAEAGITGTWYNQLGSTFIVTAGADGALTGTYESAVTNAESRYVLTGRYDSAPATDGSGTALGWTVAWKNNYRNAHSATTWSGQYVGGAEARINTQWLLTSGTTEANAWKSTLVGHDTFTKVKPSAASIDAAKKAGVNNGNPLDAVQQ

The target in assay [2] is T2, SAVSBPM18 engineered streptavidin (S27A, G48T) (UniProt P22629 25-183, S27A | G48T).
T2 construct: streptavidin with the double mutation S27A, G48T; Secreted by means of the B. subtilis levansucrase (SacB) signal peptide; also called streptavidin SAVSBPM18; source: B. subtilis WB800[pSAVSBPM18], secreted, purified (biotin-agarose)
T2 sequence (P22629 25-183 S51A/G72T): as the sequence (P22629 25-183 G72T) above, with S27A counted along it

The next assay concerns the target T3, wild-type streptavidin (UniProt P22629 25-183).
T3 construct: wild-type streptavidin, commercial; also called wt SAV; wt streptavidin; source: bought: Sigma Canada

T3 sequence (P22629 25-183): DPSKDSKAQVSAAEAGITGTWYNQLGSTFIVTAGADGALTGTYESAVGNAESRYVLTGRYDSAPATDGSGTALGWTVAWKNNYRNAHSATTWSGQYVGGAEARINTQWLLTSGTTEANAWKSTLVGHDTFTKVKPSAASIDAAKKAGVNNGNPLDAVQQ

B1: synthetic 59-amino acid peptide with the full length SBP tag (peptide)
peptide: CGGGGSTSGGSTSGGSTSGGGMDEKTTGWRGGHVVEGLAGELEQLRARLEHHPQGQREP
notes: N-terminal cysteine for thiol coupling to the CM5 chip, then the 20-amino-acid glycine-rich linker; the limits are worked out as 1 Cys + 20 linker + 38 SBP = 59; also called SBP tag (peptide); synthetic SBP tag; source: synthetic peptide (Peptide 2.0 Inc.)
In the case of B1, in assay [1], the Kd amounted to 1.99 nM, the koff came to 0.00056 s⁻¹ and the kon was 281000 M⁻¹ s⁻¹. In assay [2], this molecule came in with a Kd of 7.67 nM, an off-rate constant (koff) of 0.000821 s⁻¹ and an on-rate (kon) of 107000 M⁻¹ s⁻¹. In the assay with wild-type streptavidin, this molecule gave a dissociation constant (Kd) of 1.65 nM, a koff of 0.000496 s⁻¹ and a kon of 300000 M⁻¹ s⁻¹.
